Results published in patent US20130251714A1.

Biological target: CXCR5 (human; form in the assay not stated) (UniProt P32302)
Assay: side-by-side comparison; method not stated

fold higher affinity than the commercial antibodies: 10 fold | off rate, times better than the other antibodies: 100 times
B1: Mouse anti-hCXCR5 mAb clone 16D7 (antibody, V domains shown)
VH: QVQLKESGPGLVAPSQSLSITCTVSGFSLIDYGVNWIRQPPGKGLEWLGVIWGDGTTYYNSALKSRLSIRKDNSQSQVFLKMNSLQTDDTAMYYCARIVYWGQGTLVTVSA
VL: DIVMTQAAPSVAVTPRESVSISCRSSKSLLHSSGKTYLYWFLQRPGQSPQLLIYRMSNLASGVPDRFSGSGSGTAFTLRISRVEAEDVGVYYCMQHLEYPYTFGGGTKLEIK
